Key:
[1] = biological target: T1, recombinant Pseudomonas aeruginosa PcrV, full-length (PAO), His-tagged (Pseudomonas aeruginosa); experiment: BLI
[2] = biological target: T2, native PcrV on live Pseudomonas aeruginosa (strains O6-57/66, O11-PA103, O1-52/66, O16-177/81) (Pseudomonas aeruginosa); experiment: cell-based or functional assay
[3] = biological target: T2, native PcrV on live Pseudomonas …; experiment: cell-based or functional assay; remark: listed apart in the source
[4] = biological target: T1, recombinant Pseudomonas aeruginosa …; experiment: ELISA, PcrV coated on the plate, goat anti-human Fc-AP detection
[5] = biological target: T2, native PcrV on live Pseudomonas …; experiment: cell-based or functional assay; remark: listed apart in the source
[6] = biological target: T2, native PcrV on live Pseudomonas …; experiment: cell-based or functional assay; remark: listed apart in the source
[7] = biological target: T1, recombinant Pseudomonas aeruginosa …; experiment: SPR (BIACORE)

| Binder | Kd [1] [nM] | RBC lysis assay IC50 (P. aeruginosa strain 57/66(O6)) [2] [µg/mL] | A549 cytotoxicity assay IC50 (P. aeruginosa strain PA103(O11)) [3] [µg/mL] | EC50 [4] [µg/mL] | RBC lysis Average IC50 over the three strains [5] [µg/mL] | RBC lysis IC50, strain O1-52/66 [5] [µg/mL] | RBC lysis IC50, strain O6-57/66 [5] [µg/mL] | RBC lysis IC50, strain O16-177/81 [5] [µg/mL] | A549 cell lysis Average IC50 over the strains [6] [µg/mL] | A549 cell lysis IC50, strain O1-52/66 [6] [µg/mL] | A549 cell lysis IC50, strain O6-57/66 [6] [µg/mL] | A549 cell lysis IC50, strain O11-PA103 [6] [µg/mL] | A549 cell lysis IC50, strain O16-177/81 [6] [µg/mL] | Kd [7] [nM] |
| --- | --- | --- | --- | --- | --- | --- | --- | --- | --- | --- | --- | --- | --- | --- |
| 3B12 (antibody, V domains shown, also called optimized anti-PcrV mAb clone 3B12) VH: EVQLLESGGGLVQPGGSLRLSCTASGFTFSSNHMSWVRQAPGKGLDWVSGISESGGSTNYADSVKGRFSTSRDNSKSTLYLDMNSLRAEDTAIYYCAKGRFSDEYGHFFRAVYGMDVWGQGTAVTVSS VL: DIQLTQSPSSLSASVGDRVTITCRASQGISSYLAWYQQKPGKAPKLLIYAASTLQSGVPSRFSGSGSGTDFTLTISSLQPEDFATYYCQQLSSYPLTFGGGTKVEIK | 0.167 | 0.16 | 2.68 | 0.118 |  |  |  |  |  |  |  |  |  |  |
| 3A9 (antibody, V domains shown, also called optimized anti-PcrV mAb clone 3A9) VH: EVQLLESGGGLVQPGGSLRLSCTASGFTFSDYSMSWVRQAPGKGLDWVSGISESGGSTNYADSVKGRFSTSRDNSKSTLYLDMNSLRAEDTAIYYCAKGRFSDSTKHFFRAVYGMDVWGQGTAVTVSS VL: DIQLTQSPSSLSASVGDRVTITCRASQGISSYLAWYQQKPGKAPKLLIYAASTLQSGVPSRFSGSGSGTDFTLTISSLQPEDFATYYCQQLSSYPLSFGGGTKVEIK | 0.533 | 0.23 | 1.21 | 0.116 |  |  |  |  |  |  |  |  |  |  |
| 7B2 (antibody, V domains shown, also called optimized anti-PcrV mAb clone 7B2) VH: EVQLLESGGGLVQPGGSLRLSCTASGFTFSDYPMSWVRQAPGKGLDWVSGISESGGSTNYADSVKGRFSTSRDNSKSTLYLDMNSLRAEDTAIYYCAKGRFSTDSSHFFRAVYGMDVWGQGTAVTVSS VL: DIQLTQSPSSLSASVGDRVTITCRASQGISSYLAWYQQKPGKAPKLLIYAASTLQSGVPSRFSGSGSGTDFTLTISSLQPEDFATYYCQQLSSYPLSFGGGTKVEIK | 0.0875 | 0.05 | 2.32 | 0.0967 |  |  |  |  |  |  |  |  |  |  |
| 3A11 (antibody, V domains shown, also called optimized anti-PcrV mAb clone 3A11) VH: EVQLLESGGGLVQPGGSLRLSCTASGFTFSSYHMSWVRQAPGKGLDWVSGISESGGSTNYADSVKGRFSTSRDNSKSTLYLDMNSLRAEDTAIYYCAKGRFSQSSSHFFRAVYGMDVWGQGTAVTVSS VL: DIQLTQSPSSLSASVGDRVTITCRASQGISSYLAWYQQKPGKAPKLLIYAASTLQSGVPSRFSGSGSGTDFTLTISSLQPEDFATYYCQQLSSYPLTFGGGTKVEIK | 0.126 |  | 0.91 | 0.0952 |  |  |  |  |  |  |  |  |  |  |
| 13-42 mAb (antibody, V domains shown) VH: EVQLLESGGGLVQPGGSLRLSCTASGFTFSDYPMSWVRQAPGKGLDWVSGISESGGSTNDADSVKGRFSTSRDNSKSTLYLDMNSLRAEDTAIYYCAKGRFCTNSSCFFRAVYGMDVWGQGTAVTVSS VL: DIQLTQSPSSLSASVGDRVTITCRASQGISSYLAWYQQKPGKAPKLLIYAASTLQSGVPSRFSGSGSGTDFTLTISSLQPEDFATYYCQQLSSYPLSFGGGTKVEIK | 0.414 | 0.23 | 2.67 | 0.132 | 0.355 | 0.472 | 0.13 | 0.464 | 1.38 | 2.34 | 0.891 | 1.21 | 1.08 |  |
| 6D10 (antibody, V domains shown, also called optimized anti-PcrV mAb clone 6D10) VH: EVQLLESGGGLVQPGGSLRLSCTASGFTFSDYPMSWVRQAPGKGLDWVSGISESGGSTNYADSVKGRFSTSRDNSKSTLYLDMNSLRAEDTAIYYCAKGRFSTDSSHFYRAVYGMDVWGQGTAVTVSS VL: DIQLTQSPSSLSASVGDRVTITCRASQGISSYLAWYQQKPGKAPKLLIYAASTLQSGVPSRFSGSGSGTDFTLTISSLQPEDFATYYCQQLSSYPLSFGGGTKVEIK |  | 0.16 | 2.63 |  |  |  |  |  |  |  |  |  |  | 0.052 |
| 7B1 (antibody, V domains shown, also called 7B1-IgG1; 7B1 mAb) VH: EVQLLESGGGLVQPGGSLRLSCTASGFTFSDNYMSWVRQAPGKGLDWVSVISESGGSTNYADSVKGRFSTSRDNSKSTLYLDMNSLRAEDTAIYYCAKGRFSTLSSHFFRAVYGMDVWGQGTAVTVSS VL: DIQLTQSPSSLSASVGDRVTITCRASQGISSYLAWYQQKPGKAPKLLIYAASTLQSGVPSRFSGSGSGTDFTLTISSLQPEDFATYYCQQLSSYPLTFGGGTKVEIK | < 0.001 | 0.1 | 1.06 | 0.125 | 0.214 | 0.308 | 0.138 | 0.197 | 2.13 | 4.56 | 0.503 | 2.61 | 0.861 | 0.0847 |

— patent publication US20220289830A1 (STAIDSON BEIJING BIOPHARMACEUTICALS, published 2022)
